Values of other authors as cited in patent publication US9817004B2, “Development and use of cysteine-labeled fluorescent probes of unbound analytes” (priority 2008, dated 2017).

Settings: I-FABP mutants labeled with acrylodan; from U.S. Pat. No. 5,470,714; cited from earlier work

| Molecule | fluorescence response to FFAu binding |
| --- | --- |
| Thr81Cys: I-FABP mutant Thr81Cys labeled with acrylodan (Kleinfeld '714) (protein, UniProt P02693 2-132, looked up, variant T81C, acrylodan label) Fatty acid-binding protein, …: AFDGTWKVDRNENYEKFMEKMGINVVKRKLGAHDNLKLTITQEGNKFTVKESSNFRNIDVVFELGVDFAYSLADGTELTGCWTMEGNKLVGKFKRVDNGKELIAVREISGNELIQTYTYEGVEAKRIFKKE | unresponsive to FFAu binding |
| Thr83Cys: I-FABP mutant Thr83Cys labeled with acrylodan (Kleinfeld '714) (protein, UniProt P02693 2-132, looked up, variant T83C, acrylodan label) Fatty acid-binding protein, …: AFDGTWKVDRNENYEKFMEKMGINVVKRKLGAHDNLKLTITQEGNKFTVKESSNFRNIDVVFELGVDFAYSLADGTELTGTWCMEGNKLVGKFKRVDNGKELIAVREISGNELIQTYTYEGVEAKRIFKKE | unresponsive to FFAu binding |
